This note sets out measurements from the RNAGym collection of RNA variant scans (doi:10.1093/molbev/msab373).

Sequences and labels used below:
B1: Azoarcus group I ribozyme (parent)
chain: GUGCCUUGCGCCGGGAAACCACGCAAGGGAUGGUGUCAAAUUCGGCGAAACCUAAGCGCCCGCCCGGGCGUAUGGCAACGCCGAGCCAAGCUUCGGCGCCUGCGCCGAUGAAGGUGUAGAGACUAGACGGCACCCACCUAAGGCAAACGCUAUGGUGAAGGCAUAGUCCAGGGAGUGGCGAAAGUCACACAAACCGG

In the series the parent is B1. Nature of the series: reverse-splicing fitness (ratio to wild type); higher = more active; in vitro selection; Mg2+ level not given. The essentials: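 An in vitro group I ribozyme library with randomized positions was T7-transcribed and gel-purified. In triplicate, 10 pmol RNA in EPPS pH 7.5 was reacted with 50 pmoles of a 30-nt RNA substrate for 1 h at 37 °C across several added MgCl2 levels (1–48 mM), then stopped with EDTA. Products were reverse transcribed from a substrate-complementary primer, PCR-amplified and sequenced (HiSeq 4000). Fitness is a variant's read proportion after selection over that before, normalised to wild type.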
For the variant A111U A145U C150A C169A U176A, the reverse-splicing fitness was 0.0131. Take C82U A120C A145G C150A C169A: the reverse-splicing fitness was 0.00919. In the case of C82G A111U A120U A145U C150G C169A U176C it was 0.00246. As for C82A A111G A120G C150G C169A U176G, the reverse-splicing fitness was 0.00672. As to C82A A145C C150U U176G, the reverse-splicing fitness came out at 0.0335. For the variant C150A C169G, the reverse-splicing fitness was 0.0379. Take A111C A120U A145G C150U U176A: the reverse-splicing fitness stood at 0.184. Turning to A120U A145G C150A, the reverse-splicing fitness came to 0.361. In the case of C82A A111C A120U A145G C150G C169G U176A it was 0.0101; in that of C82G A111C A120U A145U C150G C169U, 0.00326; in that of C82U A111G A120C A145U C150G C169G U176G, 0.00386.

C82G A111C A120U A145G C150G U176C: the reverse-splicing fitness was found to be 0.009. C82G A111G A120G A145U C150G C169G U176A: the reverse-splicing fitness turned out to be 0.00751. In the case of C82U A111G C150A U176A, the reverse-splicing fitness was found to be 0.0272. As for C82A A111U A120U A145C C150A C169U U176C, the reverse-splicing fitness amounted to 0.00287. In the case of C82G A111C A145G U176A, the reverse-splicing fitness worked out at 0.129. To C82A A120U C150G U176A belongs 0.00566; to C82A A111U A120C A145U C150A C169U, 0.0109; to C82G A145G C150U, 0.401. As for C82U A111U A120U A145U C169U U176A, the reverse-splicing fitness is 0.00286. On to C82G A111G A145U C150U C169G, for which the reverse-splicing fitness amounted to 0.00988. With A111U A145G C150U C169G U176A, the reverse-splicing fitness was determined as 0.0164. Take C82A A120U A145G C150U C169U U176G: the reverse-splicing fitness is 0.00226. In the case of C82G A111C A120U A145G, the reverse-splicing fitness stood at 0.0506. C82U A111C A120C C150U: the reverse-splicing fitness stood at 0.0192. In the case of C82G A111U A120U C150A C169U U176A, the reverse-splicing fitness amounted to 0.00604.

For C82G A111U A120G A145U C150U U176A, the reverse-splicing fitness worked out at 0.0118. As to A111U A120G C150A U176A, the reverse-splicing fitness came to 0.0147. Regarding C82G A111C A120C C150A U176G, the reverse-splicing fitness came out at 0.00842. In the case of C82A A111C A120C A145G C150G C169G U176A it was 0.0109. Take A111C A120C A145C C150G C169A: the reverse-splicing fitness amounted to 0.00813.

Turning to C82A A111G A145U C150A U176G, the reverse-splicing fitness is 0.0106. With C82A A111C A120C A145G C150A C169U U176A, the reverse-splicing fitness came to 0.0154. Turning to C82U A111G A120G C150A C169U U176G, the reverse-splicing fitness came to 0.00765. Take A120C C150G C169U U176C: the reverse-splicing fitness amounted to 0.0388. As for C82A A111G A145U C150U C169A, the reverse-splicing fitness was 0.00951. In the case of A111U A145U U176G, the reverse-splicing fitness was 0.364. For C82A A111G A120U A145C C169A U176A, the reverse-splicing fitness came out at 0.00258. C82G A111G A120G A145G C169U U176G: the reverse-splicing fitness was found to be 0.00529. In the case of A111U A120U A145U C150A C169A it was 0.00249; in that of A111U A120C A145C C150U C169G U176G, 0.00481; in that of C82U A111U A145U C150A C169G, 0.00727.

In the case of A145U C169U U176C, the reverse-splicing fitness was determined as 0.149. Regarding C82A A111U A120G A145C C150A C169A U176C, the reverse-splicing fitness is 0.00664. On to C82A A111U A120G A145C C150A C169A U176G, for which the reverse-splicing fitness turned out to be 0.00551. For the variant C82A A120G A145C C150U C169A U176G, the reverse-splicing fitness was 0.00425. Turning to C82A A120U A145G C150A C169A U176G, the reverse-splicing fitness stood at 0.00236. For C82U A111C C150A C169A U176A, the reverse-splicing fitness amounted to 0.0162. With C82U A120U A145C C150G U176C, the reverse-splicing fitness was 0.00864.

With C82U A120C A145G C150A C169A U176A, the reverse-splicing fitness is 0.0175. In the case of A120U A145C C169A U176G, the reverse-splicing fitness was found to be 0.00153. With C82G A111U A120G A145U C150G C169A U176A, the reverse-splicing fitness turned out to be 0.0104. Regarding C82A A111G A120U C150G, the reverse-splicing fitness was 0.00849. On to C82U A111G A120U A145U C150U C169U, for which the reverse-splicing fitness came to 0.00372. As to C82A A111G A120U C150A C169U U176C, the reverse-splicing fitness was found to be 0.00484. A111G A120U A145G C169G U176G: the reverse-splicing fitness is 0.00189. For A120U C169A U176A, the reverse-splicing fitness is 0.00399. With C82U A111U A145C C150A C169U U176C, the reverse-splicing fitness stood at 0.00882. To C82A A120C A145G C150A C169G U176G belongs 0.00638; to C82G A120G A145G C150U C169U U176A, 0.0213. To A111G A120G A145U C150G C169A belongs 0.0193; to A111C A145U C150A U176C, 0.166. In the case of C82U A111C A120U A145G C150G C169A U176G it was 0.00495.

Turning to A111C A120C A145G C150G C169G U176A, the reverse-splicing fitness was 0.0102. As for A120G A145C C150U C169U U176G, the reverse-splicing fitness was determined as 0.00915. As to C82U A120G A145U C169A U176C, the reverse-splicing fitness was determined as 0.0105. On to A111U A145G C150U U176G, for which the reverse-splicing fitness amounted to 0.22. For the variant A111G C150U C169A U176C, the reverse-splicing fitness came out at 0.0193. Consider A111G A120G A145U C150U C169U U176A, for which the reverse-splicing fitness was determined as 0.0647. On to A120G A145G C150U C169A U176C, for which the reverse-splicing fitness turned out to be 0.157. To C82G A145G C150U C169G U176C belongs 0.0184. On to C82G A111C A120C C150A C169A U176G, for which the reverse-splicing fitness is 0.00868. As to C82U A111G A120C A145C C150A C169G U176G, the reverse-splicing fitness is 0.00451. With C82A A111C A120C A145U C150U C169U U176C, the reverse-splicing fitness was 0.0133.

For C82A A111C A120G A145U C150G C169G U176C, the reverse-splicing fitness is 0.00484. Turning to A111G A120C C150A C169G U176A, the reverse-splicing fitness turned out to be 0.0214. Regarding C82A A111C A120C C150G U176C, the reverse-splicing fitness came to 0.00863. To C82A A120U C150U C169U U176C belongs 0.00368; to A111U A145G C150G C169G U176A, 0.00998; to A111G A120G A145C C150A C169A U176C, 0.00695. Turning to C82G A111U C150A U176C, the reverse-splicing fitness was 0.0357.

C82U A111G A120G A145U C169G: the reverse-splicing fitness came to 0.0113. C82G A111U A120C A145G C169U: the reverse-splicing fitness was found to be 0.0141.

Turning to C82U A111C A120G A145C C169U U176A, the reverse-splicing fitness worked out at 0.0137.
